Patent publication US11633499B2, “Anti-TMEM-180 antibody, anticancer drug and cancer testing method” (NATIONAL CANCER CENTER JAPAN, priority 2016, dated 2023)
Numbering of substitutions follows the chain as printed.

T1: TMEM-180 (Homo sapiens, UniProt Q14CX5)
T1 construct: endogenous in cells; host or cells: DLD-1 colon cancer cell line (parent / wild type); culture supernatant exosomes in A20
T1 sequence (Q14CX5 1-517): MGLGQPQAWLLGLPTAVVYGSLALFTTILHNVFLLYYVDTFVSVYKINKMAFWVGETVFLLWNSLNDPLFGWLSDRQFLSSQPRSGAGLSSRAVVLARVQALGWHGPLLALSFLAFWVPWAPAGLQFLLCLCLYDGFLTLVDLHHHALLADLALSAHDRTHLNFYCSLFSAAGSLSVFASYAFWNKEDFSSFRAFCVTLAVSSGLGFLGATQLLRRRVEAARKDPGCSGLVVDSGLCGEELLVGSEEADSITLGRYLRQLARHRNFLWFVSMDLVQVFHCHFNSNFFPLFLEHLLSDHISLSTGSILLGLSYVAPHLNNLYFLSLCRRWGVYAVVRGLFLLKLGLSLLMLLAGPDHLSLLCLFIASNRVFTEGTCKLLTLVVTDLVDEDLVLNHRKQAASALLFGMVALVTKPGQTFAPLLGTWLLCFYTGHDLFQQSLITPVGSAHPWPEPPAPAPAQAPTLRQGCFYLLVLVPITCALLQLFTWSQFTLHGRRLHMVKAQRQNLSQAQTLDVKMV

B1: clone 1052: rat IgM anti-TMEM-180 monoclonal antibody; variable regions SEQ ID NOs: 94 and 95 (antibody, V domains shown)
VH: MAVLVLLLCLVTFPSCVLSQVQLKESGPGLMQPSETLSLTCTVSGFSLTSNGVGWVRQPLGKGLVWMGTIWTGGGTNYNSGVQSRLSISRDTSKSQVFLKMNSLQPEDTGTYYCAREYMGFDYWGQGVMVTVSS
VL: MELISQVFVFLLLWLSGVYGNTVMTQSPTSMFTSVGDRVTMSCKASQNVGINVGWYQQKTGQSPKRLIYWASNRDTGVPDRFTGSGSGTDFTLTISNMQAEDPAIYYCLQHNSYPRTFGGGTKLELK
B2: clone 1105: rat IgM anti-TMEM-180 monoclonal antibody; variable regions SEQ ID NOs: 102 and 103 (antibody, V domains shown)
VH: B1 VH with T72S, G81A, S89T, Y118E, M119K, D122A, V128T, M129L
VL: B1 VL with T22I, F32S, T117A, K127R
B3: clone 101: rat IgM anti-TMEM-180 monoclonal antibody; variable regions SEQ ID NOs: 15 and 16 (antibody, V domains shown)
VH: MAILVLLLCLVTIPHSVLSQVQLKETGPGLVQPTQTLSITCTVSGFSLTSYYMQWVRQTPGKGLEWMGFIRSGGSTEYNSEFKSRLSISRDTSKNQVFLKMNSLKTEDTGVYYCARAFYGGYYFDYWGQGVMVTVSS
VL: MGIRMESHTRVFIFLLLWLSGADGDIVMTQSPTSISISVGERVTMNCKASQNVGSNVDWYQQKTGQSPKLLIYKASNRYTGVPDRFTGSGSGTDFTFTISNMQAEDLAVYYCMQSNTKYTFGAGTKLELK
B4: clone 212: rat IgM anti-TMEM-180 monoclonal antibody; variable regions SEQ ID NOs: 46 and 47 (antibody, V domains shown)
VH: MDIRLSLAFLVLFIKGVQCEVQLVESGGGLVQPGNSLKLSCAASGFTFSDYAMAWVRQSPKKGLEWVATIIYDGSSTYYRDSVKGRFTISRDNAKSTLYLQMDSLRSEDTATYYCATHWYWYFDFWGPGTMVTVSS
VL: MGVPTQLLGLLLLWITDAICDIQMTQSPASLSASLGETVSIECLASEGISNDLAWYQQKSGKSPQLLIYAASRLQDGVPSRFSGSGSGTRYSLKISGMQPEDEADYFCQQSYKYPLTFGSGTKLEIK
B5: rat-human chimeric antibody clone 98: rat-human chimeric IgG1 antibody carrying clone 98 variable regions (antibody, V domains shown)
VH: QVQLKESGPGLVQPSQTLSLTCTVSGFSLTRYNVHWVRQPTGKGLEWMGVIWTGGSTDYNSALKSRLSISRDTSKSQVFLKMNSLQTEDIATYYCARDLGYWGQGVMVTVSS
VL: DIVMTQTPLSLSVAIGQSASISCKSSQSLKYRDGKTYLNWVFQSPGQSPKRLIYQVSKLDSGVPDRFSGTGSETDFTLKISRVEAEDLGVYYCCQGSYSPHTFGAGTKLELK

Experiments:
[1] = test system: cell lines derived from cancers (ATCC and JCRB); assay: Reactivity of antibodies to cancer-derived cell lines by FACS (Table 23); assay type: binding; conditions: Cancer Type: Colon
Experimental: (§1) Cancer cells targeted for measurement were cultured in medium and then added to a V-bottom 96-well plate (Corning Incorporated) to a concentration of 1×10^5 cells/well. The plate was centrifuged for 3 minutes at 440×g and 4° C. followed by removing the supernatant, adding antibody-producing hybridoma culture supernatant or antibody solution to the cell pellet at 50 μL/well and suspending therein. After allowing to react for 45 minutes on ice, the plate was washed three times with a mixture of 0.1% BSA, 2 mM EDTA and PBS at 200 μL/well. The supernatant was removed and secondary antibody was added to the cell pellet at 50 μL/well followed by suspending the cells therein. ALEXAFLUOR 647@ (fluorescent compound) goat anti-rat IgG (H-L) (Life Technologies Corporation) was used for the secondary antibody after diluting 400-fold with a mixture of 0.1% BSA, 2 mM EDTA and PBS. After allowing to react for 45 minutes on ice, the plate was washed three times with a mixture of 0.1% BSA, 2 mM EDTA and PBS at 200 μL/well. After removing the supernatant, 50 ng/mL of propidium iodide, 0.1% BSA, 2 mM EDTA and PBS were added to the cell pellet at 250 µL/well followed by suspending therein. The cells stained in this manner were measured using a flow cytometer such as the Guava easyCyte 8HT (Merck Millipore Corporation) followed by analysis of the resulting data using FlowJO (Tomy Digital Biology Co., Ltd.). FACS analysis was carried out using colon cancer, brain tumor and hematologic cancer.
Cancer-detection rates were tested using monoclonal antibodies (the 669 antibody, 1052 antibody, 1105 antibody, and 1361 antibody).
In this Example, the reactivity of the antibodies to the cell lines derived from cancers which were obtained from ATCC and JCRB was analyzed by FACS.

[2] = test system: cell lines derived from cancers (ATCC and JCRB); assay: as above; assay type: binding
colon cancer cell lines = assay: Flow cytometry (FACS) with anti-TMEM-180 IgM clones, colon cancer; assay type: binding; conditions: six types of colon cancers; FIG. 3
Experimental: as §1

brain tumor cell lines = assay: Flow cytometry (FACS) with anti-TMEM-180 IgM clones, brain tumor; assay type: binding; conditions: four types of brain tumors; FIG. 3
Experimental: as §1

DLD-1 colon cancer cells = assay: Fluorescent immunostaining of DLD-1 colon cancer cells; assay type: binding, human; conditions: fixed and permeabilized DLD-1; antibody concentrations of clones not aligned; FIG. 4
Experimental: DLD-1 cells were added to a 96-well plate (Corning Incorporated, CeIIBIND) to a concentration of 5×10^3 cells/well and subjected to cell staining after culturing for 2 days. The cells were subjected to fixation and permeation treatment in the manner indicated below. After washing the cell culturing plate twice with PBS at 200 μL/well, the washings were removed followed by the addition of 4% para-formaldehyde-phosphate buffer (Wako Pure Chemical Industries, Ltd.) containing 0.1% TRITON™ (surfactant) X-100 (Wako Pure Chemical Industries, Ltd.) at 100 µL/well while cooling with ice and fixing the cells for 10 minutes. After removing the fixation solution, the plate was washed once with PBS at 200 μL/well and once with a mixture of 1% FBS in PBS at 200 μL/well to obtain a cell-immobilized plate. The cells were stained in the manner indicated below. Namely, after removing medium from the non-immobilized cell culturing plate and removing washings from the cell-immobilized plate, […] hybridoma culture supernatant or diluted antibody solution was added at 50 μL/well. After allowing to react for 1 hour on ice, the plate was washed once with PBS at 200 μL/well and twice with a mixture of 1% FBS in PBS at 200 μL/well. After removing the washings, a mixture of 5 μg/mL ALEXAFLUOR 647@ (fluorescent compound) goat anti-rat IgG (H-L), 2 μg/mL Hoechst 33342 and 1% FBS/PBS was added at 50 μL/well. After allowing to react for 1 hour on ice, the plate was washed twice with PBS at 200 μL/well. PBS was then added at 50 μL/well followed by measuring with ArrayScan (Thermo Fisher Scientific Inc.).

colon cancer DLD-1 cells = assay: Cytocidal effect of anti-TMEM-180 IgM antibody (WST-8), DLD-1; assay type: cell-based, human; conditions: hybridoma culture supernatant adjusted to 80, 20 or 5 μg/mL, 96 hours, FIGS. 7 and 8
Experimental: (§2) DLD-1 cells and K562 cells were added to a 96-well plate at 1×10^3 cells/100 μL/well followed by culturing for 24 hours. 50 μL of medium were removed from each well of the 96-well plate followed by the addition of rat IgM antibody clone 98-producing hybridoma culture supernatant or rat IgM antibody clone 101-producing hybridoma culture supernatant, in which antibody concentration had been adjusted to 80 μg/mL, 20 μg/mL or 5 μg/mL, at 50 μL/well. Here, n number in each culture condition was 3, and wells containing medium only were prepared as controls. […] After culturing for 96 hours, WST-8 (Dojindo Laboratories, Cell Counting Kit-8) was added at 10 μL/well followed by measuring absorbance at 450 nm with a microplate reader after culturing for 3 hours. The relative values of absorbance at each antibody concentration were plotted by plotting antibody concentration on the horizontal axis and assigning a value of 1 to the optical absorbance of the well containing medium only. […] Cytocidal effects were also observed for other colon cancer cells Difi, Carl, SW480 and Colo201.

[3] = test system: hematologic tumor K562 cells; assay: Cytocidal effect of anti-TMEM-180 IgM antibody (WST-8), K562; assay type: cell-based; conditions: hybridoma culture supernatant adjusted to 80, 20 or 5 μg/mL, 96 hours, FIGS. 7 and 8
Experimental: as §2

TMEM-180 = target: T1, TMEM-180; assay: FACS of DLD-1 parent line and TMEM-180 knockout line; assay type: binding
Experimental: The plate was centrifuged for 3 minutes at 440×g and 4° C. followed by removing the supernatant, adding antibody-producing hybridoma culture supernatant or antibody solution to the cell pellet at 50 μL/well and suspending therein. After allowing to react for 45 minutes on ice, the plate was washed three times with a mixture of 0.1% BSA, 2 mM EDTA and PBS at 200 μL/well. The supernatant was removed and secondary antibody was added to the cell pellet at 50 μL/well followed by suspending the cells therein. […] After allowing to react for 45 minutes on ice, the plate was washed three times with a mixture of 0.1% BSA, 2 mM EDTA and PBS at 200 μL/well. […] The cells stained in this manner were measured using a flow cytometer such as the Guava easyCyte 8HT (Merck Millipore Corporation) followed by analysis of the resulting data using FlowJO (Tomy Digital Biology Co., Ltd.). FACS analysis was carried out using colon cancer, brain tumor and hematologic cancer.
Flow cytometry was carried out in accordance with the procedure described in the above-mentioned section 3. […] The supernatant of a culture of hybridoma producing rat IgM antibody clone 365 was used as a negative control after similarly diluting to 1 μg/mL. […] A mixture of RPMI and 10% FBS was used to dilute each of the antibodies. Furthermore, antibody concentration in the hybridoma culture supernatant was measured by rat IgM-specific ELISA (Bethyl Laboratories).

| Molecule | Detection Sensitivity of Cancers, P/N [1] | Detection Sensitivity of Cancers, Percentage (%) [1] | Detection Sensitivity of Cancers, Percentage (%) ([2]; Cancer Type: Bladder) | Detection Sensitivity of Cancers, P/N ([2]; Cancer Type: Brest) | Detection Sensitivity of Cancers, Percentage (%) ([2]; Cancer Type: Brest) | Detection Sensitivity of Cancers, P/N ([2]; Cancer Type: Gastric) | Detection Sensitivity of Cancers, Percentage (%) ([2]; Cancer Type: Gastric) | Detection Sensitivity of Cancers, P/N ([2]; Cancer Type: Pancreas) | Detection Sensitivity of Cancers, Percentage (%) ([2]; Cancer Type: Pancreas) | FACS reactivity to colon cancers (colon cancer cell lines) | FACS reactivity to brain tumors (brain tumor cell lines) | fluorescent immunostaining (pattern, intensity) (DLD-1 colon cancer cells) | other results |
| --- | --- | --- | --- | --- | --- | --- | --- | --- | --- | --- | --- | --- | --- |
| B1 | (3/10) | 30% | 50% | (3/6) | 50% | (2/8) | 25% | (4/9) | 44% | – | – | – | Detection Sensitivity of Cancers, P/N ([2]; Cancer Type: Bladder): (2/4) |
| B2 | (3/10) | 30% | 50% | (3/6) | 50% | (2/8) | 25% | (4/9) | 44% | – | – | – | – |
| B3 | – | – | – | – | – | – | – | – | – | positive for four types of colon cancers | negative for all of the brain tumors | weaker fluorescence intensity than clone 98 and the cytoplasm was also stained | cytocidal effects against DLD-1 cells (colon cancer DLD-1 cells): demonstrated cytocidal effects; cytocidal effects against K562 cells [3]: did not demonstrate cytocidal effects |
| B4 | – | – | – | – | – | – | – | – | – | positive for all six types of colon cancers | positive for only one type of brain tumor | weaker fluorescence intensity than clone 98 and the cytoplasm was also stained | – |
| B5 | – | – | – | – | – | – | – | – | – | – | – | – | FACS shift, TMEM-180 knockout line versus parent line (TMEM-180; DLD-1 parent line vs TMEM-180 knockout line, FIG. 5): considerable left shift; specific recognition of TMEM-180 (TMEM-180; conclusion from DLD-1 parent vs knockout FACS): specifically recognize TMEM-180 |
